Results published in patent US20240343811A1 (SHANDONG SIMCERE BIOPHARMACUTICAL, published 2024).
Residue numbers refer to the chain shown, from its start. Where two headings read alike, the source gives them in different places.

B1: VHH06-03 humanized VHH-Fc antibody (Fc fusion)
chain: EVQLVESGGGVVQPGGSLRLSCAASGSTWTTYAVRWYRQAPGKQREWVAFISVDGSTNYADSVKGRFTISRDNSKNTVYLQMNSLRAEDTADYICRVGGQYWGQGTMVTVSSEPKSSDKTHTCPPCPAPEEFGGPSVFLFPPKPKDTLMISRTPEVTCVVVAVSHEDPEVKFNWYVDGVEVHNAKTKPREEQYNSTYRVVSVLTVLHQDWLNGKEYKCKVSNKALPAPIEKTISKAKGQPREPQVYTLPPSREEMTKNQVSLTCLVKGFYPSDIAVEWESNGQPENNYKTTPPVLDSDGSFFLYSKLTVDKSRWQQGNVFSCSVMHEALHNHYTQKSLSLSPGK
B2: VHH06-06 humanized VHH-Fc antibody (Fc fusion)
chain: B1 chain with I69V
B3: VHH06-07 humanized VHH-Fc antibody (Fc fusion)
chain: B1 chain with M107Q
B4: VHH10 VHH-Fc antibody (Fc fusion)
chain: QVQLVESGGGLVQAGGSLRLSCVGSSSTLTTYAVRWYRQAPGKQREWVAFISVDGSTNYPDSVKGRFIVSRDNAKNTVYLQMNSLKPEDTADYICRAGGQYWGQGTQVTVSSEPKSSDKTHTCPPCPAPEFEGGPSVFLFPPKPKDTLMISRTPEVTCVVVAVSHEDPEVKFNWYVDGVEVHNAKTKPREEQYNSTYRVVSVLTVLHQDWLNGKEYKCKVSNKALPAPIEKTISKAKGQPREPQVYTLPPSREEMTKNQVSLTCLVKGFYPSDIAVEWESNGQPENNYKTTPPVLDSDGSFFLYSKLTVDKSRWQQGNVFSCSVMHEALHNHYTQKSLSLSPGK
B5: VHH15 VHH-Fc antibody (Fc fusion)
chain: B4 chain with Q1E, G24A, S26T, S56N

Columns and labels:
[1] = target: T1, human CD16a (158V), full length, on cells (human, UniProt P08637 17-254); assay: cell-based or functional assay
[2] = target: T2, human CD16b (NA2), full length, on FlpinCHO cells (human, UniProt O75015 17-200); assay: FACS on FlpinCHO cells
T2 construct: also called FlpinCHO-human CD16b (NA2)
T2 chain: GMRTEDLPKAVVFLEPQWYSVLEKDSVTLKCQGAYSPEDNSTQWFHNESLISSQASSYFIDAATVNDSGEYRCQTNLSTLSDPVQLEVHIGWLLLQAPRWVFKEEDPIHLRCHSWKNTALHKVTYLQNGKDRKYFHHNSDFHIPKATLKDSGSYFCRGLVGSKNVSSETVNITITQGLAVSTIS
Method: (§1) The required cells were scale-up cultured in a T-75 cell culture flask to the logarithmic growth phase. The medium was aspirated, and the cells were washed twice with a PBS buffer and then digested with trypsin. After the digestion was terminated, the cells were washed twice with the PBS buffer. The cells were counted, and then the cell pellet was resuspended with a [PBS+2% (w/w) BSA] blocking solution to 2×10⁶ cells/ml, and added to a 96-well FACS reaction plate at 50 μl/well. […] 50 μl/well of the antibody to be detected was added at different concentrations, and incubated on ice for 1 hour. […] The mixture was centrifuged and washed 5 times with PBS, and FACS (FACS Canto II, purchased from BD Company) was used for detection and result analysis. Data analysis was performed by software (CellQuest) to obtain the mean fluorescence intensity (MFI) of the cells. Then, software (GraphPad Prism8) was used for analysis, data fitting and EC50 value calculation.
(§2) The binding of an antibody to be detected to FlpinCHO-human CD16b cells was detected according to the method of Example 3.1.

[3] = target: T3, human CD16b (NA1), full length, on FlpinCHO cells (human, UniProt O75015 17-200); assay: FACS on FlpinCHO cells
T3 construct: also called FlpinCHO-human CD16b (NA1)
T3 chain: T2 chain with S20R, S49N, N66D, I90V
Method: as §1, §2

[4] = target: T4, human CD16a (158F), full length, on FlpinCHO cells (human, UniProt P08637 17-254); assay: FACS on FlpinCHO cells
Method: as §1
(§3) The binding of a humanized antibody to FlpinCHO-human CD16a cells was detected according to the method of Example 3.1.

[5] = target: T1, human CD16a (158V), full length, on …; assay: FACS on FlpinCHO cells
Method: as §1, §3

Human CD16a (158F)-his = target: T5, Human CD16a (158F)-his (human); assay: SPR (Biacore), antibody captured on Protein A
T5 construct: entry holds ECD, AVI tag, linker and His tag
Method: (§4) A sample buffer and a running buffer were HBS-EP+ (10 mM HEPES, 150 mM NaCl, 3 mM EDTA and 0.05% surfactant P20) (GE Healthcare; BR-1006-69). The flow-through cell was set to 25° C. The sample block was set to 16° C. Both were pretreated with the running buffer. In each cycle, an antibody to be detected was first captured with a Protein A chip, and then a single concentration of CD16 antigen protein was injected. The binding and dissociation processes of the antibody and the antigen protein were recorded, and finally Glycine pH 1.5 (GE Healthcare; BR-1003-54) was used to complete chip regeneration. Binding was measured by injecting different concentrations of recombinant human CD16-ECD his proteins in a solution for 240 s with a flow rate of 30 μL/min, wherein a total of 5 concentrations were prepared by using 200 nM as a starting concentration (see the detailed results for the actual concentration in the test) and performing a 1:1 dilution. The dissociation phase was monitored for up to 600 s and was triggered by switching from a sample solution to a running buffer. The surface was regenerated by washing with a 10 mM glycine solution (pH 1.5) for 30 s at a flow rate of 30 μL/min. Bulk refractive index difference was corrected by subtracting the response obtained from the goat anti-human Fc surface. Blank injection was also subtracted (=double reference). For calculation of apparent KD and other kinetic parameters, Langmuir 1:1 model was used.

[6] = target: T4, human CD16a (158F), full length, on …; assay: FACS, biotinylated antibody
Method: as §1, with “The” for “The required cells were scale-up cultured in a T-75 cell culture flask to the logarithmic growth phase. The”
(§5) An antibody to be detected was labeled in advance according to the instructions of a biotin labeling kit (EZ-Link™ NHS-PEG4 Biotinylation Kit, purchased from Thermofisher Scientific, catalog number: 21455). […] Detection was performed according to the method of Example 3.1, wherein the biotinylated antibody was detected with fluorescein APC-labeled Streptavidin (High Concentration) (purchased from Biolegend, catalog number: 405243).

[7] = target: T1, human CD16a (158V), full length, on …; assay: FACS, biotinylated antibody
Method: as §1, with “The” for “The required cells were scale-up cultured in a T-75 cell culture flask to the logarithmic growth phase. The”
as §5

[8] = target: T2, human CD16b (NA2), full length, on …; assay: FACS on FlpinCHO cells
Method: as §1, §2

[9] = target: T3, human CD16b (NA1), full length, on …; assay: FACS on FlpinCHO cells
Method: as §1, §2

[10] = target: T6, CD16 on primary human NK cells (human, UniProt P08637 17-254); assay: FACS on human NK cells
T6 construct: whole, on cells; also called resting NK cells
Method: as §1
The binding of an antibody to be detected to freshly prepared human NK cells (Milestone Biotechnologies, catalog number: PB56-N-Custom) was detected according to the method of Example 3.1.

[11] = target: T4, human CD16a (158F), full length, on …; assay: FACS on FlpinCHO cells; remark: listed apart in the source
Method: as §1

[12] = target: T1, human CD16a (158V), full length, on …; assay: FACS on FlpinCHO cells; remark: listed apart in the source
Method: as §1

[13] = target: T1, human CD16a (158V), full length, on …; assay: cell-based or functional assay; remark: listed apart in the source
[14] = target: T4, human CD16a (158F), full length, on …; assay: FACS, biotinylated antibody, +10 mg/mL human immunoglobulin
Method: as §1, with “The” for “The required cells were scale-up cultured in a T-75 cell culture flask to the logarithmic growth phase. The”
as §5

[15] = target: T1, human CD16a (158V), full length, on …; assay: as above
Method: as §1, with “The” for “The required cells were scale-up cultured in a T-75 cell culture flask to the logarithmic growth phase. The”
as §5

Human CD16a (158V)-his = target: T7, Human CD16a (158V)-his (human); assay: SPR (Biacore), antibody captured on Protein A
T7 construct: entry holds ECD, AVI tag, linker and His tag
Method: as §4

T7 sequence (chain, as listed by the source limits assumed): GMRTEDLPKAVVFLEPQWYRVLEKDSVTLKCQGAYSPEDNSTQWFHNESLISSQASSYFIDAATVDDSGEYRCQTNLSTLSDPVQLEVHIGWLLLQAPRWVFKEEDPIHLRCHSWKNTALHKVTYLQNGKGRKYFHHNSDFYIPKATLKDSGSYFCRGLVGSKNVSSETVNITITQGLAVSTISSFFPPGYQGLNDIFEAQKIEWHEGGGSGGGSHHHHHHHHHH
T5 sequence (chain, as listed by the source limits assumed): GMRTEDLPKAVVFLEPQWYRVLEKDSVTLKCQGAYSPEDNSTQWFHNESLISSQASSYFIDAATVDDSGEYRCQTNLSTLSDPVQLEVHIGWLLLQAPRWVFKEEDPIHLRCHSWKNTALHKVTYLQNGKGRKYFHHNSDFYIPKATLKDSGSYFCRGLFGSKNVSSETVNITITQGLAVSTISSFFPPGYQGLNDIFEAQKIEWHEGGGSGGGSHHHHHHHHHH
T1 sequence (P08637 17-254 F176V limits assumed): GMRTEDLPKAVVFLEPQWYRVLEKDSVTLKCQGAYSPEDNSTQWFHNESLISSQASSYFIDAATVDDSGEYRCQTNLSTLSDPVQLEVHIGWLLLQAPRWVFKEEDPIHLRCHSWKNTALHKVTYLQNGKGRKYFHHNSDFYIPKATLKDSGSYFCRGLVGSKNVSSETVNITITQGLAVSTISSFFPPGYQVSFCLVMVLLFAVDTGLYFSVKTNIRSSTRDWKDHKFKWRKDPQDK
T6 sequence (P08637 17-254): as the sequence (P08637 17-254 F176V limits assumed) above, with V160F counted along it
T4 sequence (P08637 17-254 limits assumed): as the sequence (P08637 17-254 F176V limits assumed) above, with V160F counted along it

Binder | EC50, activation activity for Jurkat cell [1] [pM] | Maximum fluorescence value [1] | Maximum mean fluorescence intensity [2] | binding result [2] | EC50 [3] [pM] | Maximum mean fluorescence intensity [3] | EC50 [4] [pM] | Maximum mean fluorescence intensity [4] | EC50 [5] [pM] | Maximum mean fluorescence intensity [5] | Kd (Human CD16a (158F)-his) [pM] | koff (Human CD16a (158F)-his) [s⁻¹] | kon (Human CD16a (158F)-his) [M⁻¹ s⁻¹] | EC50 [6] [pM] | Maximum mean fluorescence intensity [6] | EC50 [7] [pM] | Maximum mean fluorescence intensity [7] | Maximum mean fluorescence intensity [8] | binding result [8] | EC50 [9] [pM] | other results
B1 | 20 | 171000 | 174 | no binding (tested: 100 nM) | 350 | 56900 | 470 | 9140 | 490 | 8390 | 28700 | 0.00129 | 44800 |  |  |  |  |  |  |  | 
B2 | 10 | 167000 | 204 | no binding (tested: 100 nM) | 250 | 59800 | 300 | 8930 | 280 | 8240 | 24600 | 0.00116 | 47100 |  |  |  |  |  |  |  | 
B3 | 20 | 173000 | 167 | no binding (tested: 100 nM) | 330 | 53500 | 500 | 9160 | 500 | 8460 | 32100 | 0.00139 | 43100 |  |  |  |  |  |  |  | 
B4 |  |  |  |  |  |  |  |  |  |  | 39900 | 0.00247 | 61800 | 310 | 4690 | 420 | 6980 | 140 | no binding (tested: 100 nM) | 340 | Maximum mean fluorescence intensity [9]: 51400; EC50 [10]: 450 pM; Maximum mean fluorescence intensity [10]: 2450; EC50 [11]: 440 pM; Maximum mean fluorescence intensity [11]: 5620; EC50 [12]: 630 pM; Maximum mean fluorescence intensity [12]: 6480; EC50, activation activity for Jurkat cell [13]: 20 pM; Maximum fluorescence value [13]: 157000; EC50 [14]: 1200 pM; Maximum mean fluorescence intensity [14]: 6040; EC50 [15]: 1390 pM; Maximum mean fluorescence intensity [15]: 9200; Kd (Human CD16a (158V)-his): 13600 pM; koff (Human CD16a (158V)-his): 0.00146 s⁻¹; kon (Human CD16a (158V)-his): 107000 M⁻¹ s⁻¹
B5 |  |  |  |  |  |  |  |  |  |  | 42800 | 0.00273 | 63800 | 400 | 5240 | 490 | 7260 | 178 | no binding (tested: 100 nM) | 440 | Maximum mean fluorescence intensity [9]: 52100; EC50 [10]: 740 pM; Maximum mean fluorescence intensity [10]: 2400; EC50 [11]: 440 pM; Maximum mean fluorescence intensity [11]: 5600; EC50 [12]: 690 pM; Maximum mean fluorescence intensity [12]: 6490; EC50, activation activity for Jurkat cell [13]: 20 pM; Maximum fluorescence value [13]: 167000; EC50 [14]: 1410 pM; Maximum mean fluorescence intensity [14]: 6570; EC50 [15]: 1410 pM; Maximum mean fluorescence intensity [15]: 9030; Kd (Human CD16a (158V)-his): 14100 pM; koff (Human CD16a (158V)-his): 0.0016 s⁻¹; kon (Human CD16a (158V)-his): 114000 M⁻¹ s⁻¹
